Measurements reported in article doi:10.1101/2022.06.20.496707.
Read-outs that look alike come from different tables or passages of the source.

Columns and labels:
[1] = molecular target: Serratia NucC (type III-A CRISPR-Cas-associated accessory nuclease of Serratia sp. ATCC 39006) (Serratia sp. ATCC 39006); experiment: crystal structure
[2] = molecular target: Serratia NucC (type III-A CRISPR-Cas-associated accessory nuclease of Serratia sp. ATCC 39006) (Serratia sp. ATCC 39006); experiment: crystal structure; remark: listed apart in the source

- stoichiometry N [1]: 6
- stoichiometry N [2]: 6
Substance: Serratia NucC (type III-A CRISPR-Cas-associated accessory nuclease of Serratia sp. ATCC 39006) (enzyme)
